Like-named read-outs stand apart in the source and are kept apart here. Numbered stars: 1 amine (or outer) side, 2 acyl side, 3 side chain; on linkers, the order of the positions; unused ones are H or OH. Bridge positions count the residues as written; N and C are the ends. Square brackets hold non-standard residues; d marks the D form. Peptide text beside a SMILES is read from it. * marks the point of attachment. X1 = COc1cc2cc(c1Cl)N(C)C(=O)C[C@H](OC(=O)[C@H](C)N(C)C(=O)CCSSC(C)CCC(=O)*)[C@]1(C)O[C@H]1[C@H](C)[C@@H]1C[C@@](O)(NC(=O)O1)[C@H](OC)/C=C/C=C(\C)C2; 1Nal = N[C@@H](Cc1cccc2ccccc12)C(=O)O; TBMB = c1c(C[*:1])cc(C[*:3])cc1C[*:2]; Tle = CC(C)(C)[C@H](N)C(=O)O; βAla = NCCC(=O)O; Sar = CNCC(=O)O
Tests used:
[1] = nu/nu BALB/c mouse PK study; format: in vivo; settings: plasma, 15 mg/m2, 15 mg/m^2 IV
MDA-MB-231 = assay: In vitro cytotoxicity (CellTiter-Glo) MDA-MB-231; format: cell-based; settings: MDA-MB-231, Breast
Text: Table 1 and Table 2 Notes: in general regression and stable disease correlated with the in vitro cytotoxicity and MT1-MMP expression. Female BALB/c mice n=3/group animals dosed twice per week except EBC-1 three per week. Tumor growth inhibition (TGI) (%)=[1−(Ti−T0)/(Vi−V0)]×100; Ti is the average tumor volume of a treatment group on a given day, TO is the average tumor volume of the treatment group on the day of treatment start, Vi is the average tumor volume of vehicle control group on the same day with Ti, and V0 is the average tumor volume of vehicle group on the day of treatment start. A one-way ANOVA was performed to compare tumor volume among groups, and when a significant F-statistics (a ratio of treatment variance to the error variance) was obtained, comparisons between groups were carried out with Games-Howell test. All data were analyzed using GraphPad Prism.* p<0.05, ** p<0.01, *** p<0.001. In vitro cytotoxicity was measured by CellTiter-Glo®, MT1-MMP membrane H score from immunohistochemistry staining, NM not measured. Tumor size on Day 1 of dosing.

[2] = Plasma protein binding, human; format: in vitro ADME
Procedure: Plasma protein binding of BT1718 was also assessed. The mean plasma protein binding of the BT1718 peptide ranged from 87% to 98%, with the free fraction of BT1718 being 13% in human, 2.6% in rats, 7.5% in mice, 3.8% in monkey and 1.5% in dog plasma, the results had no correlation to the plasma and whole blood stability data. […] Plasma protein binding of unconjugated DM1, has previously been reported, with the unbound fraction being 7% in human and monkey and 3% in rat.

[3] = Stability in plasma in vitro, dog; format: in vitro ADME; settings: 37° C.
Procedure: The stability of BT1718 was assessed in plasma and whole blood from humans, monkey, dog, mouse and rat. […] The mechanism for the difference in stability of the BT1718 peptide in whole blood between the different species is unknown.

[4] = Total DM1 in plasma and urine / excretion (preclinical); format: in vivo
Procedure: Efficacy in this model was reduced in the conjugates containing the least cleavable linkers. […] Effective treatment was also seen with same total dose, given at on schedules from daily to a single weekly dose.
The concentration of total DM1 in plasma and urine was also measured following a reduction step, to detect DM1 in BT1718, any peptidyl-DM1 metabolites of BT1718, other DM1-containing mixed disulfides and free DM1. The level of total DM1 in plasma and urine increased with increasing dose, with about 85% of the total DM1 recovered in urine within 48 hours of BT1718 administration. […] An assay for free DM1 has not been successfully developed due to the instability of the free thiol in biological matrices.

[5] = Preclinical PK and toxicokinetics, summary across studies; set-up: species or system mice and rats; settings: mouse and rat, in vivo, intravenous, read-out: half-life estimate
Text: BT1718 has low molecular weight (3.5 kDA) in comparison to other conjugated toxin approaches, which enables rapid penetration of tumor tissue. […] Hypothesized advantages over ADCs therefore include reduced systemic exposure of normal tissues to circulating BT1718, the ability to manage toxicity during recovery periods, as well as the improved tumor penetrance. Other potential advantages include a fixed peptide:conjugate ratio of 1:1 (c.f. ADCs where variable conjugation results in mixed populations) and with more scalable manufacturing as a small molecule (c.f. biologics such as ADCs).

[6] = GLP-compliant 28-day repeat dose toxicity study, rat; format: in vivo
Procedure: In a GLP-compliant study in Cynomolgus monkeys, the highest non-severely toxic dose (HNSTD) of BT1718 was established to be 18 mg/m^2 administered twice weekly, equivalent to a human dose of 0.48 mg/kg. In a GLP-compliant study in the rat, the MTD was not reached with the highest administered dose 6 mg/m^2 twice weekly. At this dose level, there was kidney toxicity (with no effect on clinical condition) and also testicular toxicity. After 28 days off-dose, there was evidence of partial recovery of kidney-related findings, but no recovery of testicular effects at this dose level. […] Therefore, the MTD for rat for twice weekly dosing was considered to be between 1 and 1.5 mg/kg.

[7] = LC-MS/MS quantification of DM1 in patient tumor samples; format: in vivo, patients; settings: three patient tumor samples
Procedure: A quantitative high performance liquid chromatography-tandem mass spectrometry (LC-MS/MS) method for the quantification of DM1 in tissue samples was developed.
DM1 was administered as complexed with a bicyclic peptide in […]. In order to determine the concentration of the free DM1 the conjugated molecule was reduced and subsequently derivatized with vinyl pyridine.
The same sample preparation procedure used for PK determination in the GLP pre-clinical studies, is applied for the determination of DM1 in tissue samples, In short: after tissue homogenization samples were reduced with TCEP prior derivatization by vinyl-pyiridine. […]
The homogenization method was optimized as follows: • 1) Thaw the tissue samples at room temperature. • 2) Weight the desired amount of tissue in a Precellys 2 mL Reinforced tube on an Analytical Balance. • 3) Use the weight of the tissue to calculate the volume of solution. […] Homogenization solution: (NaCl (0.9%): SDS (0.2 mg/mL) (50:50 v/v %)) • 4) Add the calculated amount of solution to the tissue. • 5) Vortex for approximately 5 seconds. • 6) Pre-cool the samples in a wet ice bath for approximately 8 minutes • 7) Run the Precellys-24 Dual homogenizer at 5000 rpm in five sessions of 40 seconds. • 8) Centrifuge the homogenate samples 3 minutes at 3000 rpm at 4° C. using a 5810-R centrifuge.

[8] = rat GLP, 1 mg/kg (6 mg/m^2) twice weekly
[9] = rat GLP, males 1 mg/kg (6 mg/m^2) twice weekly

Work on `COc1cc2cc(c1Cl)N(C)C(=O)C[C@H](OC(=O)[C@H](C)N(C)C(=O)CCSSC(C)CCC(=O)NCCC(=O)N(C)CC(=O)N(C)CC(=O)N(C)CC(=O)N(C)CC(=O)N(C)CC(=O)N(C)CC(=O)N(C)CC(=O)N(C)CC(=O)N(C)CC(=O)N(C)CC(=O)N[C@@H](C)C(=O)N[C@H]1CSCc3cc4cc(c3)CSC[C@H](NC(=O)[C@@H](C)NC(=O)[C@H](Cc3cccc5ccccc35)NC(=O)[C@H](CCC(=O)O)NC(=O)[C@H](CC(N)=O)NC(=O)[C@@H](C)NC1=O)C(=O)N[C@@H](CCC(=O)O)C(=O)N[C@@H](CC(=O)O)C(=O)N[C@@H](Cc1ccccc1)C(=O)N[C@@H](Cc1ccc(O)cc1)C(=O)N[C@@H](CC(=O)O)C(=O)N[C@@H](C(C)(C)C)C(=O)N[C@H](C(N)=O)CSC4)[C@]1(C)O[C@H]1[C@H](C)[C@@H]1C[C@@](O)(NC(=O)O1)[C@H](OC)/C=C/C=C(\C)C2` (some centres unmarked) [BT1718] ({X1-βAla}-[Sar][Sar][Sar][Sar][Sar][Sar][Sar][Sar][Sar][Sar]AC[dA]NE[1Nal][dA]CEDFYD[Tle]C-NH2; linker 12-18-25 via TBMB (inferred)) yielded an AUC [1] of 1.7 ± 0.3 µM·h, a clearance [1] of 10.6 ± 1.5 mL/min/kg and a half-life [1] of 25.8 ± 2.4 min. For the same compound, the Cmax ([1]; read-out: C0/Cmax) was 5.8 ± 0.94 µM, the Vd ([1]; read-out: Vdss) was 0.26 ± 0.08 L/kg and the IC50 (MDA-MB-231) was 39.8 nM. For the same compound, the fraction unbound ([2]; human plasma, read-out: free fraction) was 0.13, the fraction unbound ([2]; range across human, rat, mouse, monkey and dog plasma, read-out: mean plasma protein binding) was 0.02 to 0.13 and the half-life [3] was > 360 min. The route of excretion ([4]; preliminary metabolism studies) was “excreted mainly through the kidney in urine”, the “total DM1 recovered in urine” value ([4]; within 48 hours of BT1718 administration) was “about 85%” and the half-life [5] was 15 to 30 min. For the same compound, the GI-related findings ([6]; GLP rat) was “No GI-related findings”, the bladder changes ([6]; GLP rat) was “No bladder changes” and the MTD ([6]; GLP rat, highest administered dose 6 mg/m^2 twice weekly) was “not reached”. For the same compound, the MTD at 28 day ([6]; in vivo, intravenous, considered from GLP and non-GLP rat studies, read-out: MTD for rat for twice weekly dosing) was 1 to 1.5 mg/kg, the “anti-drug antibodies (ADAs) in serum” value ([6]; rat 28-day GLP study) was “negative” and the hepatic findings ([6]; rat GLP 28 day, 1 mg/kg (6 mg/m^2) twice weekly) was “minimal to slight reversible hepatocellular atrophy”. For the same compound, the “raised ALP, AST and cholesterol, from control values” ([6]; rat GLP 28 day, 1 mg/kg twice weekly) was ≤ 1.5 ×, the “erythrocyte parameters, maximum drop” value [6, 8] was 0.64 × and the “increase in platelets, maximum” value [6, 8] was 2.3 ×. For the same compound, the reduction in reticulocytes ([6]; rat GLP, 1 mg/kg (6 mg/m^2) twice weekly, females) was 0.37 ×, the reduction in reticulocytes ([6]; rat GLP, 1 mg/kg (6 mg/m^2) twice weekly, males) was 0.06 × and the reproductive organ findings ([6]; rat GLP, all males 1 mg/kg (6 mg/m^2) twice weekly) was “testicular degeneration/atrophy of the seminiferous tubules and the absence of sperm”. For the same compound, the “incidence of minimal hypertrophy of the zona glomerulosa” value (“incidence” for short) ([6]; rat GLP, females 1 mg/kg (6 mg/m^2) twice weekly) was 5 of 10, the “incidence” value ([6]; rat GLP, males 0.2 mg/kg (1.2 mg/m^2) twice weekly) was 2 of 10 and the “incidence” value ([6]; rat GLP, males 0.5 mg/kg (3 mg/m^2) twice weekly) was 3 of 10. The “adrenal gland terminal weights” value [6, 9] was “significantly lower terminal weights”, the “incidence” value [6, 9] was 4 of 10 and the “onset dose of renal tubular epithelial degeneration” value ([6]; rat GLP, twice weekly) was 0.2 mg/kg. The axonal degeneration ([6]; rat study) was “not observed” and the “delivery of DM1 to tumor” value [7] was “delivery of DM1 to tumor in two patients”.

Reference: US20200129630A1, “METHODS FOR TREATING CANCER” (BicycleRD Limited, priority 2018, published 2020)
